Results reported in PMC9482650, “Quantitative fragmentomics allow affinity mapping of interactomes” (Nature Communications, 2022).

Tests used:
Experiment in all cases: holdup assay
Design in all cases: key: below the threshold = too weak to quantify, mostly under pKd 3.1 to 4
LIN7C, Q9NUP9 = target: T1, LIN7C, Q9NUP9
T1 sequence (Q9NUP9 88-185, limits assumed, looked up): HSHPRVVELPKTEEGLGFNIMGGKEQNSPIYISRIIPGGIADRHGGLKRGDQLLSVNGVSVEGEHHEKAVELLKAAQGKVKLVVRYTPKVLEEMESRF

LDB3, O75112 = target: LDB3, O75112
Inadl_6, Q8NI35 = target: Inadl_6, Q8NI35
FRMPD2_2, Q68DX3 = target: FRMPD2_2, Q68DX3
Inadl_2, Q8NI35 = target: Inadl_2, Q8NI35
APBA3_1, O96018 = target: T2, APBA3_1, O96018
T2 sequence (O96018 389-490, limits assumed, looked up): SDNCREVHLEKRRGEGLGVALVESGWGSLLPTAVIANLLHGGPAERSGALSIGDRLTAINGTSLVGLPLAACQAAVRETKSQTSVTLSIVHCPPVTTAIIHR

NHERF3_3, Q5T2W1 = target: T3, NHERF3_3, Q5T2W1
T3 sequence (Q5T2W1 238-333, limits assumed, looked up): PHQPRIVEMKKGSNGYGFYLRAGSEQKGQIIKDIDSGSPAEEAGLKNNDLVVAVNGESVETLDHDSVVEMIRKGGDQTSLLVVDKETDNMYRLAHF

MAGI2_2, Q86UL8 = target: MAGI2_2, Q86UL8
GRASP, Q7Z6J2 = target: GRASP, Q7Z6J2
GRIP2_4, Q9C0E4 = target: GRIP2_4, Q9C0E4
NHERF4_4, Q86UT5 = target: NHERF4_4, Q86UT5
PARD3_3, Q8TEW0 = target: PARD3_3, Q8TEW0
GRIP1_3, Q9Y3R0 = target: T4, GRIP1_3, Q9Y3R0
T4 sequence (Q9Y3R0 247-346, limits assumed, looked up): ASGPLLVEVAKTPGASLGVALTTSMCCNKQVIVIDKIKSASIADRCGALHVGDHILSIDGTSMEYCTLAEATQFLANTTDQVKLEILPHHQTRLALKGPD

DLG2_2, Q15700 = target: DLG2_2, Q15700
GRIP2_7, Q9C0E4 = target: GRIP2_7, Q9C0E4
RAPGEF6, Q8TEU7 = target: T5, RAPGEF6, Q8TEU7
T5 sequence (Q8TEU7 525-625, limits assumed, looked up): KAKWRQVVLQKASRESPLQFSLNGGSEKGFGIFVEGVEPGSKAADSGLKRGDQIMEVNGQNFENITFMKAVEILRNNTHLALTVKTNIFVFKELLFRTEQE

HTRA1, Q92743 = target: HTRA1, Q92743
HTRA4, P83105 = target: T6, HTRA4, P83105
T6 sequence (P83105 378-476, limits assumed, looked up): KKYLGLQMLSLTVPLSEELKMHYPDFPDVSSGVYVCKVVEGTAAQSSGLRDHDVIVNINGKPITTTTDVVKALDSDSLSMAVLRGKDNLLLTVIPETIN

LIMK2, P53671 = target: LIMK2, P53671
SHANK1, Q9Y566 = target: T7, SHANK1, Q9Y566
T7 sequence (Q9Y566 658-767, limits assumed, looked up): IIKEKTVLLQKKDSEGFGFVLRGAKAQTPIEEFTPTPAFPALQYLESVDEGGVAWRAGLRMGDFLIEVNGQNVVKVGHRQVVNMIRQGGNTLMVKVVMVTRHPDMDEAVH

DFNB31_1, Q9P202 = target: T8, DFNB31_1, Q9P202
T8 sequence (Q9P202 135-233, limits assumed, looked up): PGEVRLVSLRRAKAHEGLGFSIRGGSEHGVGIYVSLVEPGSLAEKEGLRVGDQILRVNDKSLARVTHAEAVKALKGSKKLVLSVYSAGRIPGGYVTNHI

MAGI2_5, Q86UL8 = target: MAGI2_5, Q86UL8
MAGI3_2, Q5TCQ9 = target: MAGI3_2, Q5TCQ9
SNX27, Q96L92 = target: SNX27, Q96L92
GRID2IP_1, A4D2P6 = target: GRID2IP_1, A4D2P6
DLG4_1, P78352 = target: DLG4_1, P78352
NHERF2_2, Q15599 = target: NHERF2_2, Q15599
CARD11, Q9BXL7 = target: T9, CARD11, Q9BXL7
T9 sequence (Q9BXL7 662-765, limits assumed, looked up): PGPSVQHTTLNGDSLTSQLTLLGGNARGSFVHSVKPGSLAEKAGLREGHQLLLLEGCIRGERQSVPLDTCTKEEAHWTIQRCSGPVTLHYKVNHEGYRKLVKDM

[1] = plain residues with an end cap or a label only (N-terminal biotin on a linker: ado-ado)
[2] = plain residues with an end cap or a label only (N-terminal biotin on a linker: ahx)

NHERF4_4, Q86UT5, sequence (Q86UT5 464-550): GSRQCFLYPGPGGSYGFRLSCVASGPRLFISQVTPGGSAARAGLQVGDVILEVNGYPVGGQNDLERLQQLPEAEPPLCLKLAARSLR
MAGI2_5, Q86UL8, sequence (Q86UL8 915-1017): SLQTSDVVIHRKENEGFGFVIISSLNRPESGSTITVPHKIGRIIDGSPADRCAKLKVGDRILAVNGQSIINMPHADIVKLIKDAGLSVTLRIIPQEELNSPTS
PARD3_3, Q8TEW0, sequence (Q8TEW0 582-685): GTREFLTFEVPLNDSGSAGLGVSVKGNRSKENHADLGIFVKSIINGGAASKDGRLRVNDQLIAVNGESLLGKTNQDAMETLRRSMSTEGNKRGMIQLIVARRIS
LDB3, O75112, sequence (O75112 1-94): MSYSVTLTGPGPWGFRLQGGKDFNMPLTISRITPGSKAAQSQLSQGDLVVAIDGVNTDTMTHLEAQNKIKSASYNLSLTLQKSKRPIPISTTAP
HTRA1, Q92743, sequence (Q92743 360-477): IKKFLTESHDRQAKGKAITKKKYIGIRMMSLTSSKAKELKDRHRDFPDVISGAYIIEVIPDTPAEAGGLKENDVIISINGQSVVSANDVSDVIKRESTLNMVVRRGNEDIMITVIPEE
GRIP2_7, Q9C0E4, sequence (Q9C0E4 934-1023): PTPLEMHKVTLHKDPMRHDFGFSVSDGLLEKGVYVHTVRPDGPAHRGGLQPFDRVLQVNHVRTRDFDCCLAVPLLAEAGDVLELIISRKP
MAGI2_2, Q86UL8, sequence (Q86UL8 410-522): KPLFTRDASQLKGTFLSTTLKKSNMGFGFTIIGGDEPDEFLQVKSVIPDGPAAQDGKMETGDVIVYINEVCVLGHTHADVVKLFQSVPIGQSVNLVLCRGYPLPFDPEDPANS
Inadl_6, Q8NI35, sequence (Q8NI35 1058-1167): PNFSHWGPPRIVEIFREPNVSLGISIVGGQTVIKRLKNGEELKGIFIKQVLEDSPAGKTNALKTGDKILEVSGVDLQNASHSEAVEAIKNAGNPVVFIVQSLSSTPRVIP
NHERF2_2, Q15599, sequence (Q15599 142-238): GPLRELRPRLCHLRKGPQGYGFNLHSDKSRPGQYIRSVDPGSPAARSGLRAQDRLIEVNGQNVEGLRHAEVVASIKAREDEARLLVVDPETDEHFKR
DLG2_2, Q15700, sequence (Q15700 189-283): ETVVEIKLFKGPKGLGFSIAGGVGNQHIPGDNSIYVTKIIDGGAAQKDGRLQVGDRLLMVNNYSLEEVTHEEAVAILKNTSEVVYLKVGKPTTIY
DLG4_1, P78352, sequence (P78352 62-152): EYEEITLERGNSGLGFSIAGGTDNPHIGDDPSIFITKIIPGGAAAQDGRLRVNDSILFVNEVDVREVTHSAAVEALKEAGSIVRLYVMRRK
FRMPD2_2, Q68DX3, sequence (Q68DX3 944-1038): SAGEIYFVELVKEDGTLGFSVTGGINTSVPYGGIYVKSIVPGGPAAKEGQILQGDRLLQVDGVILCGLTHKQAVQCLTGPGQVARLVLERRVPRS
MAGI3_2, Q5TCQ9, sequence (Q5TCQ9 398-503): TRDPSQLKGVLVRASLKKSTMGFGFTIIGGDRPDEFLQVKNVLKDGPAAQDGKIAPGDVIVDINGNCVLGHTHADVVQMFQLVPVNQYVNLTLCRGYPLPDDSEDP
GRID2IP_1, A4D2P6, sequence (A4D2P6 1-87): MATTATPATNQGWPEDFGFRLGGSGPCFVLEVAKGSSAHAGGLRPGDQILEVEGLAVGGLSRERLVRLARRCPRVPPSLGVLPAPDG
GRASP, Q7Z6J2, sequence (Q7Z6J2 96-193): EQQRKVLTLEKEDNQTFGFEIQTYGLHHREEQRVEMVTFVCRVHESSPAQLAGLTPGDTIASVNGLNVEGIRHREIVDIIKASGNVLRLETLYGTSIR
GRIP2_4, Q9C0E4, sequence (Q9C0E4 446-548): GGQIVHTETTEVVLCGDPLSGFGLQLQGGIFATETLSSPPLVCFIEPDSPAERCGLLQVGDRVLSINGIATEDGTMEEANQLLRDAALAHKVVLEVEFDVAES
Inadl_2, Q8NI35, sequence (Q8NI35 238-335): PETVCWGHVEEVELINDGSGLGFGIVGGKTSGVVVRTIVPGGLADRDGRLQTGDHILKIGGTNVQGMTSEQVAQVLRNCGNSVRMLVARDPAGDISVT
LIMK2, P53671, sequence (P53671 143-248): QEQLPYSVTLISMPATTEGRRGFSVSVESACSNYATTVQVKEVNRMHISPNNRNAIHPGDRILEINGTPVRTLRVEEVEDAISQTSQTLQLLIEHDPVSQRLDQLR

## LPAVCYDIDI [PTTG2, Q9NZH5]
LIN7C, Q9NUP9; [1]
  pKd: 4.01
LDB3, O75112; [1]
  pKd: below the threshold
Inadl_6, Q8NI35; [1]
  pKd: below the threshold
FRMPD2_2, Q68DX3; [1]
  pKd: below the threshold
Inadl_2, Q8NI35; [1]
  pKd: below the threshold
APBA3_1, O96018; [1]
  pKd: below the threshold
NHERF3_3, Q5T2W1; [1]
  pKd: below the threshold
MAGI2_2, Q86UL8; [1]
  pKd: below the threshold
GRASP, Q7Z6J2; [1]
  pKd: below the threshold
GRIP2_4, Q9C0E4; [1]
  pKd: below the threshold
NHERF4_4, Q86UT5; [1]
  pKd: 4.9
PARD3_3, Q8TEW0; [1]
  pKd: 4.29
GRIP1_3, Q9Y3R0; [1]
  pKd: below the threshold
DLG2_2, Q15700; [1]
  pKd: below the threshold
GRIP2_7, Q9C0E4; [1]
  pKd: below the threshold
RAPGEF6, Q8TEU7; [1]
  pKd: below the threshold
HTRA1, Q92743; [1]
  pKd: 3.9
HTRA4, P83105; [1]
  pKd: 3.96
LIMK2, P53671; [1]
  pKd: below the threshold
SHANK1, Q9Y566; [1]
  pKd: below the threshold
DFNB31_1, Q9P202; [1]
  pKd: below the threshold
MAGI2_5, Q86UL8; [1]
  pKd: below the threshold
MAGI3_2, Q5TCQ9; [1]
  pKd: below the threshold
SNX27, Q96L92; [1]
  pKd: below the threshold
GRID2IP_1, A4D2P6; [1]
  pKd: below the threshold
DLG4_1, P78352; [1]
  pKd: below the threshold
NHERF2_2, Q15599; [1]
  pKd: below the threshold
CARD11, Q9BXL7; [1]
  pKd: below the threshold

## KKMLQRRTLL [OR8G1, Q15617]
LIN7C, Q9NUP9; [1]
  pKd: below the threshold
LDB3, O75112; [1]
  pKd: below the threshold
Inadl_6, Q8NI35; [1]
  pKd: below the threshold
FRMPD2_2, Q68DX3; [1]
  pKd: below the threshold
Inadl_2, Q8NI35; [1]
  pKd: below the threshold
APBA3_1, O96018; [1]
  pKd: below the threshold
NHERF3_3, Q5T2W1; [1]
  pKd: 3.77
MAGI2_2, Q86UL8; [1]
  pKd: 4.44
GRASP, Q7Z6J2; [1]
  pKd: 5.05
GRIP2_4, Q9C0E4; [1]
  pKd: below the threshold
NHERF4_4, Q86UT5; [1]
  pKd: below the threshold
PARD3_3, Q8TEW0; [1]
  pKd: below the threshold
GRIP1_3, Q9Y3R0; [1]
  pKd: below the threshold
DLG2_2, Q15700; [1]
  pKd: below the threshold
GRIP2_7, Q9C0E4; [1]
  pKd: below the threshold
RAPGEF6, Q8TEU7; [1]
  pKd: below the threshold
HTRA1, Q92743; [1]
  pKd: below the threshold
HTRA4, P83105; [1]
  pKd: below the threshold
LIMK2, P53671; [1]
  pKd: below the threshold
SHANK1, Q9Y566; [1]
  pKd: 4.71
DFNB31_1, Q9P202; [1]
  pKd: below the threshold
MAGI2_5, Q86UL8; [1]
  pKd: 4.59
MAGI3_2, Q5TCQ9; [1]
  pKd: 4.55
SNX27, Q96L92; [1]
  pKd: 3.75
GRID2IP_1, A4D2P6; [1]
  pKd: below the threshold
DLG4_1, P78352; [1]
  pKd: 3.87
NHERF2_2, Q15599; [1]
  pKd: 3.61
CARD11, Q9BXL7; [1]
  pKd: below the threshold

## QSGLYESEEL [MYOT, Q9UBF9]
LIN7C, Q9NUP9; [1]
  pKd: 3.58
LDB3, O75112; [1]
  pKd: 5.2
Inadl_6, Q8NI35; [1]
  pKd: below the threshold
FRMPD2_2, Q68DX3; [1]
  pKd: below the threshold
Inadl_2, Q8NI35; [1]
  pKd: below the threshold
APBA3_1, O96018; [1]
  pKd: below the threshold
NHERF3_3, Q5T2W1; [1]
  pKd: below the threshold
MAGI2_2, Q86UL8; [1]
  pKd: 4.08
GRASP, Q7Z6J2; [1]
  pKd: 4.09
GRIP2_4, Q9C0E4; [1]
  pKd: below the threshold
NHERF4_4, Q86UT5; [1]
  pKd: below the threshold
PARD3_3, Q8TEW0; [1]
  pKd: 3.59
GRIP1_3, Q9Y3R0; [1]
  pKd: below the threshold
DLG2_2, Q15700; [1]
  pKd: below the threshold
GRIP2_7, Q9C0E4; [1]
  pKd: below the threshold
RAPGEF6, Q8TEU7; [1]
  pKd: 3.57
HTRA1, Q92743; [1]
  pKd: 4.17
HTRA4, P83105; [1]
  pKd: 3.69
LIMK2, P53671; [1]
  pKd: below the threshold
SHANK1, Q9Y566; [1]
  pKd: 3.72
DFNB31_1, Q9P202; [1]
  pKd: below the threshold
MAGI2_5, Q86UL8; [1]
  pKd: 4.02
MAGI3_2, Q5TCQ9; [1]
  pKd: below the threshold
SNX27, Q96L92; [1]
  pKd: below the threshold
GRID2IP_1, A4D2P6; [1]
  pKd: below the threshold
DLG4_1, P78352; [1]
  pKd: below the threshold
NHERF2_2, Q15599; [1]
  pKd: 4.04
CARD11, Q9BXL7; [1]
  pKd: below the threshold

## QNTDDVQTSF [ACE2, Q9BYF1]
LIN7C, Q9NUP9; [2]
  pKd: below the threshold
LDB3, O75112; [2]
  pKd: below the threshold
Inadl_6, Q8NI35; [2]
  pKd: below the threshold
FRMPD2_2, Q68DX3; [2]
  pKd: below the threshold
Inadl_2, Q8NI35; [2]
  pKd: below the threshold
APBA3_1, O96018; [2]
  pKd: below the threshold
NHERF3_3, Q5T2W1; [2]
  pKd: below the threshold
MAGI2_2, Q86UL8; [2]
  pKd: below the threshold
GRASP, Q7Z6J2; [2]
  pKd: 4.29
GRIP2_4, Q9C0E4; [2]
  pKd: below the threshold
NHERF4_4, Q86UT5; [2]
  pKd: below the threshold
PARD3_3, Q8TEW0; [2]
  pKd: below the threshold
GRIP1_3, Q9Y3R0; [2]
  pKd: below the threshold
DLG2_2, Q15700; [2]
  pKd: below the threshold
GRIP2_7, Q9C0E4; [2]
  pKd: below the threshold
RAPGEF6, Q8TEU7; [2]
  pKd: below the threshold
HTRA1, Q92743; [2]
  pKd: below the threshold
HTRA4, P83105; [2]
  pKd: below the threshold
LIMK2, P53671; [2]
  pKd: below the threshold
SHANK1, Q9Y566; [2]
  pKd: 4.75
DFNB31_1, Q9P202; [2]
  pKd: 3.47
MAGI2_5, Q86UL8; [2]
  pKd: 4.21
MAGI3_2, Q5TCQ9; [2]
  pKd: below the threshold
SNX27, Q96L92; [2]
  pKd: 4.95
GRID2IP_1, A4D2P6; [2]
  pKd: below the threshold
DLG4_1, P78352; [2]
  pKd: below the threshold
NHERF2_2, Q15599; [2]
  pKd: 4.29
CARD11, Q9BXL7; [2]
  pKd: below the threshold

## GEDRSPPTAL [MKNK1, Q9BUB5]
LIN7C, Q9NUP9; [1]
  pKd: 4.02
LDB3, O75112; [1]
  pKd: below the threshold
Inadl_6, Q8NI35; [1]
  pKd: below the threshold
FRMPD2_2, Q68DX3; [1]
  pKd: below the threshold
Inadl_2, Q8NI35; [1]
  pKd: below the threshold
APBA3_1, O96018; [1]
  pKd: below the threshold
NHERF3_3, Q5T2W1; [1]
  pKd: below the threshold
MAGI2_2, Q86UL8; [1]
  pKd: below the threshold
GRASP, Q7Z6J2; [1]
  pKd: 4.62
GRIP2_4, Q9C0E4; [1]
  pKd: below the threshold
NHERF4_4, Q86UT5; [1]
  pKd: below the threshold
PARD3_3, Q8TEW0; [1]
  pKd: below the threshold
GRIP1_3, Q9Y3R0; [1]
  pKd: below the threshold
DLG2_2, Q15700; [1]
  pKd: below the threshold
GRIP2_7, Q9C0E4; [1]
  pKd: below the threshold
RAPGEF6, Q8TEU7; [1]
  pKd: below the threshold
HTRA1, Q92743; [1]
  pKd: below the threshold
HTRA4, P83105; [1]
  pKd: 3.8
LIMK2, P53671; [1]
  pKd: below the threshold
SHANK1, Q9Y566; [1]
  pKd: below the threshold
DFNB31_1, Q9P202; [1]
  pKd: below the threshold
MAGI2_5, Q86UL8; [1]
  pKd: below the threshold
MAGI3_2, Q5TCQ9; [1]
  pKd: below the threshold
SNX27, Q96L92; [1]
  pKd: below the threshold
GRID2IP_1, A4D2P6; [1]
  pKd: below the threshold
DLG4_1, P78352; [1]
  pKd: below the threshold
NHERF2_2, Q15599; [1]
  pKd: 3.91
CARD11, Q9BXL7; [1]
  pKd: below the threshold
